What all share (assay): quantification of the flow cytometry plots of panel A (B7H3 Fc staining, CAR MFI), with or without 3 µM grazoprevir [Cont.) B]
Experiment [1] addresses T1, 065.
T1 construct: Construct named only by number on the sheets; also called B7H3-cis SNIP scFv CAR with cleavage site 065

Experiment [2] has as its target T2, 066.
T2 construct: Construct named only by number on the sheets; also called B7H3-cis SNIP scFv CAR with cleavage site 066

For experiment [3], the target named is T3, B7H3-SNIP-scFv CAR (extracellular; cis).
T3 construct: Only the full-length (uncleaved) CAR carries the scFv and is stained by B7H3 Fc; also called B7H3-cis SNIP scFv; B7H3-cis SNIP scFv CAR

This note sets out measurements from patent US20220041686A1 (Stanford University, published 2022).

B1: B7H3-Fc (Fc fusion)
chain: LEVQVPEDPVVALVGTDATLCCSFSPEPGFSLAQLNLIWQLTDTKQLVHSFAEGQDQGSAYANRTALFPDLLAQGNASLRLQRVRVADEGSFTCFVSIRDFGSAAVSLQVAAPYSKPSMTLEPNKDLRPGDTVTITCSSYQGYPEAEVFWQDGQGVPLTGNVTTSQMANEQGLFDVHSILRVVLGANGTYSCLVRNPVLQQDAHSSVTITPQRSPTGAVEVQVPEDPVVALVGTDATLRCSFSPEPGFSLAQLNLIWQLTDTKQLVHSFTEGRDQGSAYANRTALFPDLLAQGNASLRLQRVRVADEGSFTCFVSIRDFGSAAVSLQVAAPYSKPSMTLEPNKDLRPGDTVTITCSSYRGYPEAEVFWQDGQGVPLTGNVTTSQMANEQGLFDVHSVLRVVLGANGTYSCLVRNPVLQQDAHGSVTITGQPMT
notes: Staining reagent for flow cytometry; not shown: Fc part
As for B1, the “fold CAR MFI, + Drug over - Drug” value was found to be 157 fold in experiment [1], 129 fold in experiment [2] and 70 fold in experiment [3].
